What was measured:
[1] = tested on: new blood vessels in Matrigel plugs; assay: In vivo Matrigel plug assay; set-up: species or system C57/BL6 mice; conditions: for inhibition of neovascularization / average number of vessels per high power field: Tumstatin-N53 5 μg/ml, T1 and T3 peptide 10 μg/ml; for average number of vessels per high power field: control 8.81±0.35; for reduction in the number of blood vessels / number of blood vessels per plug: 14 days; for reduction of new blood vessels: 6 days, 5 μg/ml, relative to PBS control; for number of blood vessels per plug: 2 or 20 μg/ml insoluble protein, 50 ng/ml VEGF, vs PBS
Method: The matrigel assay was also conducted in vivo in C57/BL6 mice. Matrigel was thawed overnight at 4° C. It was then mixed with 20 U/ml of heparin (Pierce Chemical Co., Rockford, Ill., USA), 150 ng/ml of bFGF (R&D Systems, Minneapolis, Minn., USA), and either 1 μg/ml of Arresten or 10 μg/ml of endostatin. The matrigel mixture was injected subcutaneously using a 21 g needle. Control groups received the same mixture, but with no angiogenic inhibitor. After 14 days, mice were sacrificed and the matrigel plugs removed. The matrigel plugs were fixed in 4% paraformaldehyde in PBS for 4 hours at room temperature, then switched to PBS for 24 hours. The plugs were embedded in paraffin, sectioned, and H&E stained. Sections were examined by light microscopy and the number of blood vessels from 10 high-power fields were counted and averaged.
To evaluate the in vivo effect of Tumstatin on the formation of new capillaries, a Matrigel plug assay was performed (Passaniti, A. et al., 1992, Lab. Invest. 67:519-29). Five- to six-week-old male C57/BL6 mice (Jackson Laboratories, Bar Harbor, Me., USA) were obtained. Matrigel (Collaborative Biomedical Prods.) was thawed overnight at 4° C. Before injection into C57/BL6 mice, it was mixed with 20 U/ml of heparin (Pierce Chemical Co., Rockford, Ill., USA), 150 ng/ml of bFGF (R&D Sys., Minneapolis, Minn., USA), and […] of Tumstatin. Control groups received no angiogenic inhibitor. The Matrigel mixture was injected sub-cutaneously using a 21 gauge needle. After 14 days, mice were sacrificed and the Matrigel plugs were removed. Matrigel plugs were fixed in 4% para-formaldehyde (in PBS) for 4 hours at room temperature, then switched to PBS for 24 hours. The plugs were embedded in paraffin, sectioned, and H & E stained. Sections were examined by light microscopy and the number of blood vessels from 10 high power fields were counted and averaged. All sections were coded and observed by a pathologist who was unaware of the study protocols.
Anti-angiogenic activity was measured by the in vivo Matrigel plug assay, in which 0.5 ml of Matrigel containing either 2 μg/ml or 20 μg/ml insoluble protein, 50 ng/ml VEGF, and 20 U/ml heparin was injected simultaneously into both flanks of C57/1BL6 mice. The plugs remained in the mice for 14 days, when the mice were sacrificed and the plugs resected and fixed. The plugs were embedded, sectioned and H&E stained. Samples were blinded and the blood vessels quantitated. No difference in the number of blood vessels was found between the two concentrations of protein, so all six counts were averaged and plotted.
To evaluate the in vivo effect of Tumstatin-44-131 of the formation of new capillaries, a Matrigel plug assay was performed. After 6 days of treatment, the number of new blood formed was reduced 91% upon treatment with 5 μg/ml E. Coli-expressed Tumstatin-44-131, relative to the PBS-treated control. Tum-1, which lacks the N-terminal 53 amino acids of full-length Tumstatin, was also tested, and reduced neovascularization by 95%. The average (over 3-4 Matrigel plugs) number of vessels was 0.47.+−.0.16 for Tum-1-treated plugs, 0.80.+−.0.16 for Tumstatin-44-131-treated plugs, and 8.81.+−.0.35 for PBS-treated controls.
To evaluate the in vivo effect of T3 on the formation of new capillaries, a matrigel plug assay was performed with Tumstatin-N53 (5 μg/ml), T1 and T3 peptide (10 μg/ml). The number of blood vessels from 4-7 high power fields were counted and averaged. The average number of vessels per high power field after treatment with Tumstatin-N53 was 0.47±0.16, 7.41±0.54 for T1 peptide, and 0.33±0.16 for T3 peptide. Control treatment produced 8.81±0.35 vessels per field, on average.

[2] = tested on: Goodpasture autoantibody; assay: Reactivity with Goodpasture autoantibody (western blotting); type: binding, human
Description: Goodpasture syndrome is an autoimmune disease characterized by pulmonary hemorrhage and/or rapidly progressing glomerulonephritis, which are caused by the disruption of glomerular and alveolar basement membranes through immune injury associated with autoantibody activity against α3(IV) NC1. Recently, the most probable disease-related pathogenic epitope was identified in the N-terminal portion (Kalluri, R. et al., 1996, J. Biol. Chem. 271:9062-8; Hellmark, T. et al., 1999, Kidney Int. 55:938-44), and was then further confined within the N-terminal 40 amino acids (Hellmark, T. et al., 1999, J. Biol. Chem. 274:25862-8; Netzer, K. O. et al., 1999, J. Biol. Chem. 274:11267-74). The N-terminal Tumstatin-44-131 consists of residues 44-131 of Tumstatin, which is outside of the Goodpasture autoepitope. To further confirm that Tumstatin-44-131 would not be detected by Goodpasture autoantibody, antisera from patients with Goodpasture was used for western blotting.

## GLKGKRGDSGSPATWTTRGF [T1]
[1]
  inhibition of neovascularization: no significant reduction
  average number of vessels per high power field: 7.41±0.54

## LQRFTTMPFLFCNVNDVCNF [T3]
[1]
  inhibition of neovascularization: 96%
  average number of vessels per high power field: 0.33±0.16

B1: endostatin: tumor associated angiogenesis inhibitor used as comparator (protein, UniProt P39060 1572-1754, looked up)
Endostatin: HSHRDFQPVLHLVALNSPLSGGMRGIRGADFQCFQQARAVGLAGTFRAFLSSRLQDLYSIVRRADRAAVPIVNLKDELLFPSWEALFSGSEGPLKPGARIFSFDGKDVLRHPTWPQKSVWHGSDPNGRRLTESYCETWRTEAPSATGQASSLLGGRLLGQSAASCHHAYIVLCIENSFMTASK
modifications: Endostatin
[1]; bFGF, 1 μg/ml Arresten, 10 μg/ml endostatin
  reduction in the number of blood vessels: 50%

B2: Tumstatin: NC1 domain of the α3 chain of type IV collagen, residues 1-244 (SEQ ID NO:10) (protein, listed as Homo sapiens)
chain: GLKGKRGDSGSPATWTTRGFVFTRHSQTTAIPSCPEGTVPLYSGFSFLFVQGNQRAHGQDLGTLGSCLQRFTTMPFLFCNVNDVCNFASRNDYSYWLSTPALMPMNMAPITGRALEPYISRCTVCEGPAIAIAVHSQTTDIPPCPHGWISLWKGFSFIMFTSAGSEGTGQALASPGSCLEEFRASPFLECHGRGTCNYYSNSYSFWLASLNPERMFRKPIPSTVKAGELEKIISRCQVCMKKRH
[1]; 1 mg/ml Tumstatin, control 7.50±2.17
  number of vessels per high power field: 2.25±1.32
[1]; bFGF and heparin, 1 mg/ml E. Coli-produced Tumstatin
  reduction in the number of blood vessels: 67%
[2]
  detection by antisera / autoantibodies from patients with Goodpasture syndrome: detected

B3: Tum-1: residues 54 to 244 of Tumstatin, lacking the N-terminal 53 amino acids (SEQ ID NO:22) (protein)
chain: QRAHGQDLGTLGSCLQRFTTMPFLFCNVNDVCNFASRNDYSYWLSTPALMPMNMAPITGRALEPYISRCTVCEGPAIAIAVHSQTTDIPPCPHGWISLWKGFSFIMFTSAGSEGTGQALASPGSCLEEFRASPFLECHGRGTCNYYSNSYSFWLASLNPERMFRKPIPSTVKAGELEKIISRCQVCMKKRH
modifications: Tum-1 (Tumstatin N-53) (amino acids 54-244 of SEQ ID NO10)
[1]
  reduction of new blood vessels: 95%
  inhibition of neovascularization: 95%
  average number of vessels per high power field: 0.47±0.16
[2]
  detection by antisera / autoantibodies from patients with Goodpasture syndrome: did not bind autoantibodies

B4: Tumstatin-44-131: residues 44 to 131 of full-length Tumstatin (SEQ ID NO:33) (protein)
chain: FSFLFVQGNQRAHGQDLGTLGSCLQRFTTMPFLFCNVNDVCNFASRNDYSYWLSTPALMPMNMAPITGRALEPYISRCTVCEGPAIAI
modifications: Tumstatin-45-132 (amino acids 45-132 of SEQ ID NO10)
[1]
  reduction of new blood vessels: 91%
[2]
  detection by antisera / autoantibodies from patients with Goodpasture syndrome: failed to detect

B5: Canstatin: NC1 domain of the α2 chain of Type IV collagen (SEQ ID NO:6) (protein, listed as Homo sapiens)
chain: VSIGYLLVKHSQTDQEPMCPVGMNKLWSGYSLLYFEGQEKAHNQDLGLAGSCLARFSTMPFLYCNPGDVCYYASRNDKSYWLSTTAPLPMMPVAEDEIKPYISRCSVCEAPAIAIAVHSQDVSIPHCPAGWRSLWIGYSFLMHTAAGDEGGGQSLVSPGSCLEDFRATPFIECNGGRGTCHYYANKYSFWLTTIPEQSFQGSPSADTLKAGLIRTHISRCQVCMKNL
[1]
  number of blood vessels per plug: significantly fewer blood vessels

B6: Can-1: N-terminal 114 amino acids of full-length Canstatin (protein, listed as Homo sapiens)
chain: VSIGYLLVKHSQTDQEPMCPVGMNKLWSGYSLLYFEGQEKAHNQDLGLAGSCLARFSTMPFLYCNPGDVCYYASRNDKSYWLSTTAPLPMMPVAEDEIKPYISRCSVCEAPAIA
[1]
  number of blood vessels per plug: significantly fewer blood vessels
